Assay results reported in paper PMC9813592, “A genetic screen in Arabidopsis reveals the identical roles for RBP45d and PRP39a in 5’ cryptic splice site selection”.

T1: RBP45d (His-RBP45d) (Arabidopsis thaliana, UniProt Q8VXZ9 1-425)
T1 sequence: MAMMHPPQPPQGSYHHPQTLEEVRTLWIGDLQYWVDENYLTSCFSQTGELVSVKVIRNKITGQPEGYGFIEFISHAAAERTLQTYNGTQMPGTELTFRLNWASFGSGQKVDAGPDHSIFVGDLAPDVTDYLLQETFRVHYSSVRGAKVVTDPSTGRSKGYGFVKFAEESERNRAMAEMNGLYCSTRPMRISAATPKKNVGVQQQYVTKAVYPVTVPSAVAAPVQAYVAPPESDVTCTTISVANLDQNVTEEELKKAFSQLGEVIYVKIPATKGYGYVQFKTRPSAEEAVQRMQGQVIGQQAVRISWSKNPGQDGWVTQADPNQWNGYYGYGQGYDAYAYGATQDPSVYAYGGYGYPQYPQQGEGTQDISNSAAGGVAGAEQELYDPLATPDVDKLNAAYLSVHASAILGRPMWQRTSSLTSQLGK


Legend:
[1] = target: T1, RBP45d (His-RBP45d); test: competition; unlabeled vs Cy5-SOT5-IN7; REMSA; buffer, salt, pH and temperature not given in the material; unlabeled competitor up to at least 6 uM; conditions: protein: recombinant; tags: His (pET51b); single strand
[2] = target: T1, RBP45d (His-RBP45d); test: EMSA; dose-dependent; REMSA; buffer, salt, pH and temperature not given in the material; unlabeled competitor up to at least 6 uM; conditions: protein: recombinant; tags: His (pET51b); label: 5'-Cy5; single strand

Binder	binding result [1]	binding result [2]
CUCAAUAUGGCAAAUUUUGUAAAUC (ssRNA) [SOT5-IN7-M2-NL]	binds	–
CUCAAUAUGAUAAAUUUUGUAAAUC (ssRNA) [Cy5-SOT5-IN7]	–	binds
CUCAAUAUGCCCGGCCGGGUAAAUC (ssRNA) [SOT5-IN7-M4-NL]	no binding	–
CUCAAUAUGAUAAAUUUUGUAAAUC (ssRNA) [SOT5-IN7-NL]	binds	–
CUCAAUAUGGUAAAUUUUGUAAAUC (ssRNA) [SOT5-IN7-M1-NL]	binds	–
